Values joined by “and” are separate entries in the source; they are usually repeats but may differ in a detail not shown here. Equal entries are not always repeated.

This is an account of results in patent publication US20220242952A1 (MorphoSys, published 2022).

Test [1] has as its target T1, CD19 (human, UniProt P15391 20-556).
T1 sequence: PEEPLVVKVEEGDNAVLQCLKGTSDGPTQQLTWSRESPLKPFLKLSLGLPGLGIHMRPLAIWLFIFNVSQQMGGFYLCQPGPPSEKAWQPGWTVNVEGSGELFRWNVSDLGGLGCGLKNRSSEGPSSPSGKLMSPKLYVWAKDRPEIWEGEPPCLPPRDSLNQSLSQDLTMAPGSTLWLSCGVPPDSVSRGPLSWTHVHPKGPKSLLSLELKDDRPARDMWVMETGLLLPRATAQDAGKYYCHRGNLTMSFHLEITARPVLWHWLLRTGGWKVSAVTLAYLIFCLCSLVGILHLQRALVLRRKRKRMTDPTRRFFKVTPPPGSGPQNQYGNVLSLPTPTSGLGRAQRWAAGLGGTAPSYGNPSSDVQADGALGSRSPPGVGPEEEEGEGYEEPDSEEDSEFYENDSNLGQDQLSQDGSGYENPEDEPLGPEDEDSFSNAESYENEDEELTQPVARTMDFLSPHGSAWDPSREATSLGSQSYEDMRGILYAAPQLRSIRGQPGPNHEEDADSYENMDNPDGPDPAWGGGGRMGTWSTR
The test can be described thus: flow cytometry, QuantiBRITE PE quantitation, Toledo (DLBCL) cells. For orientation: A flow cytometer gives signals particle by particle.

The target of test [2] is T1, CD19. The test can be described thus: flow cytometry, QuantiBRITE PE quantitation, MEC-1 (CLL) cells.
The target in test [3] is T1, CD19. In words: flow cytometry, QuantiBRITE PE quantitation, JVM-2 (MCL) cells.
Test [4] concerns the target CD20 (UniProt P11836). The test can be described thus: flow cytometry, QuantiBRITE PE quantitation, Toledo (DLBCL) cells.
Test [5] has as its target CD20 (UniProt P11836). In words: flow cytometry, QuantiBRITE PE quantitation, MEC-1 (CLL) cells.
Test [6] addresses CD20 (UniProt P11836). In words: flow cytometry, QuantiBRITE PE quantitation, JVM-2 (MCL) cells.
For test [7], the target named is CD20 (UniProt P11836). In words: cell-based or functional assay.
Chain of CD20 (P11836 whole entry): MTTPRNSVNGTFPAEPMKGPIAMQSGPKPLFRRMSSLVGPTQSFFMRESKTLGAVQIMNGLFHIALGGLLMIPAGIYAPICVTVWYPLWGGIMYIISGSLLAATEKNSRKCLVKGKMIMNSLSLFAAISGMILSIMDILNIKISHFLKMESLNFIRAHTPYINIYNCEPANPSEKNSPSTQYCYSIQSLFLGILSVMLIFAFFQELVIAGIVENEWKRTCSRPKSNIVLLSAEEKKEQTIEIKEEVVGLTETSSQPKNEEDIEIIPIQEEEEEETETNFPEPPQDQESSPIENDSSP
The target in test [8] is T1, CD19. In words: cell-based or functional assay.

With “Biolegend CD19-PE (Biolegend #302208; clone HIB19) (antibody)”, the antibodies bound per cell (ABC) (antibodies bound per cell) stood at 35700 in test [1], 60900 in test [2] and 26200 in test [3].
Consider “Biolegend CD20-PE (Biolegend #302306; clone 2H7) (antibody)”, for which the antibodies bound per cell (ABC) (antibodies bound per cell) in test [4] came to 28000; in test [5] it was 71300; in test [6], 15500.
Rituximab (antibody): in test [7], the % specific killing, ADCC with NK cells, JVM-2 cells, E:T 0.1:1, 10 ug/ml antibody was 0.5%; the % specific killing, ADCC with NK cells, JVM-2 cells, E:T 3:1 and 6:1, 10 ug/ml antibody was 39% and 48%; the % specific killing, ADCC with NK cells, MEC-1 cells, E:T 0.1:1, 10 ug/ml antibody was 3%; the % specific killing, ADCC with NK cells, Toledo cells, E:T 0.1:1, 10 ug/ml antibody came out at 3%. In addition, in test [7], the % specific killing, ADCC with NK cells, Toledo cells, the two higher E:T ratios, 10 ug/ml antibody is 60%.

B1: MOR00208 (antibody, human IgG1, kappa, V domains shown)
VH: EVQLVESGGGLVKPGGSLKLSCAASGYTFTSYVMHWVRQAPGKGLEWIGYINPYNDGTKYNEKFQGRVTISSDKSISTAYMELSSLRSEDTAMYYCARGTYYYGTRVFDYWGQGTLVTVSS
VL: DIVMTQSPATLSLSPGERATLSCRSSKSLQNVNGNTYLYWFQQKPGQSPQLLIYRMSNLNSGVPDRFSGSGSGTEFTLTISSLEPEDFAVYYCMQHLEYPITFGAGTKLEIKR
Regarding B1, in test [8], the “% specific killing, ADCC with NK cells, Toledo cells, the two higher E:T ratios, 10 ug/ml antibody” value was approximately 60%; the “specific killing ratio compared to Rituximab, individual donor 296, JVM-2 cells, lowest E:T ratio” value was not above 20 fold; the “specific killing ratio compared to Rituximab, individual donor 299, Toledo cells, lowest E:T ratio” value was not above 30 fold; the “specific killing ratio normalized to Rituximab, JVM-2 cells, E:T 0.1:1, median of donors” value is 5.3 fold. For the same molecule, in test [8], the “specific killing ratio normalized to Rituximab, Toledo cells, E:T 0.1:1, median of donors” value was determined as 2.5 fold and the “specific killing ratio over Rituximab, MEC-1 cells, E:T 0.1:1, average of 17 donors” value worked out at 1.6 fold.
